Measured values: US20040137643A1, “Immunodetection and quantification methods” (priority 2002, published 2004)
Values joined by “and” are separate entries in the source; they are usually repeats but may differ in a detail not shown here. Equal entries are not always repeated. Where two headings read alike, the source gives them in different places.

Experiment: C4H enzyme assay: para-hydroxylation of cinnamic acid by yeast microsomes, HPLC quantification of p-coumarate
Type: biochemical
Settings: for Km: Arabidopsis C4H in WAT11 yeast microsomes, substrate cinnamic acid; for Turnover (min^−1 ± SD), CO difference spectrum: P450 concentration from CO difference spectroscopy; for turnover rate, calculated using P450 concentrations from CO difference spectroscopy: spectroscopic P450 quantification
Method: C4H assays were carried out in the presence of various concentrations of cinnamic acid as previously described (Humphreys et al., 1999). Briefly, an NADPH regenerating system consisting of 1 mM NADP^+, 10 mM glucose-6-phosphate, and 1 unit of glucose-6-phosphate dehydrogenase (Sigma, St. Louis, Mo.) was pre-incubated at 30° C. for 5 min to generate NADPH in a final volume of 450 PL of assay buffer. Assays were initiated by the addition of 50 μL of appropriately diluted microsomes and were incubated at 30° C. for 20 min before the reactions were stopped with 100 μL of 3N HCl. Samples were centrifuged for 20 min at 14,000×g and then analyzed by HPLC (Shimadzu Corp., Kyoto, Japan) using a Microsorb-MV C-18 column (Varian Analytical Instruments, Walnut Creek, Calif.) using the following method: solvent A, 1.5% acetic acid in water; solvent B, acetonitrile; flow rate of 1 mL min^−1; 0 to […] in 1.5 min, […], 35 to 100% B in 1 min, 100% B for 5 min. Reaction product was quantified by UV detection at 308 nm. Assays conducted with microsomes isolated from yeast transformed with pYeDP60 served as negative controls.
To evaluate the impact of introducing an amino-terminal FLAG epitotope on C4H enzymatic activity, kinetic parameters of both native and FLAG-C4H were determined using the same microsomal fractions used for protein quantification. It is important to note that the WAT11 yeast strain was chosen because this strain is engineered to express the Arabidopsis P450 reductase gene ATR1 under the control of the same galactose promoter used to drive P450 expression, eliminating the need to reconstitute the P450/P450 reductase system. Consistent with subcellular targeting of wild-type C4H expressed in yeast, both the native and FLAG-C4H activity was found in the microsomal fraction. […] Turnover rates of native and FLAG-C4H were also evaluated, using both spectroscopic and immunological P450 quantitation. When calculated using P450 concentrations obtained from CO difference spectroscopy, native C4H and FLAG-C4H turnover rates were determined to be 28±0.1 and 83±2.0 min^1, respectively. This difference, although significant, may be associated with variability in reductase activity in this heterologous expression system (data not shown). In comparison to CO difference spectroscopy, the lower concentration of FLAG-C4H obtained by Midwestern blot gives a correspondingly higher turnover rate of 380±7 min^−1.

[1] = P450 concentration from Midwestern blot

B1: Wild type C4H: Arabidopsis P450 cinnamate 4-hydroxylase (C4H) expressed in yeast from pYeDP60-C4H (protein, UniProt P92994 1-505, looked up)
Trans-cinnamate …: MDLLLLEKSLIAVFVAVILATVISKLRGKKLKLPPGPIPIPIFGNWLQVGDDLNHRNLVDYAKKFGDLFLLRMGQRNLVVVSSPDLTKEVLLTQGVEFGSRTRNVVFDIFTGKGQDMVFTVYGEHWRKMRRIMTVPFFTNKVVQQNREGWEFEAASVVEDVKKNPDSATKGIVLRKRLQLMMYNNMFRIMFDRRFESEDDPLFLRLKALNGERSRLAQSFEYNYGDFIPILRPFLRGYLKICQDVKDRRIALFKKYFVDERKQIASSKPTGSEGLKCAIDHILEAEQKGEINEDNVLYIVENINVAAIETTLWSIEWGIAELVNHPEIQSKLRNELDTVLGPGVQVTEPDLHKLPYLQAVVKETLRLRMAIPLLVPHMNLHDAKLAGYDIPAESKILVNAWWLANNPNSWKKPEEFRPERFFEEESHVEANGNDFRYVPFGVGRRSCPGIILALPILGITIGRMVQNFELLPPPGQSKVDTSEKGGQFSLHILNHSIIVMKPRNC
- Km (n=3, read-out: Km app. (±SD)): 0.7 ± 0.01 µM
- Km (read-out: Km^aPP): 0.7 ± 0.01 µM
- Turnover (min^−1 ± SD), CO difference spectrum: 28 ± 0.1 min⁻¹
- turnover rate, calculated using P450 concentrations from CO difference spectroscopy: 28±0.1 min^1

B2: FLAG-tagged C4H: amino-terminal FLAG-epitope tagged C4H expressed in yeast from pYeDP60-FC4H (protein, UniProt P92994 1-505, looked up)
Trans-cinnamate …: MDLLLLEKSLIAVFVAVILATVISKLRGKKLKLPPGPIPIPIFGNWLQVGDDLNHRNLVDYAKKFGDLFLLRMGQRNLVVVSSPDLTKEVLLTQGVEFGSRTRNVVFDIFTGKGQDMVFTVYGEHWRKMRRIMTVPFFTNKVVQQNREGWEFEAASVVEDVKKNPDSATKGIVLRKRLQLMMYNNMFRIMFDRRFESEDDPLFLRLKALNGERSRLAQSFEYNYGDFIPILRPFLRGYLKICQDVKDRRIALFKKYFVDERKQIASSKPTGSEGLKCAIDHILEAEQKGEINEDNVLYIVENINVAAIETTLWSIEWGIAELVNHPEIQSKLRNELDTVLGPGVQVTEPDLHKLPYLQAVVKETLRLRMAIPLLVPHMNLHDAKLAGYDIPAESKILVNAWWLANNPNSWKKPEEFRPERFFEEESHVEANGNDFRYVPFGVGRRSCPGIILALPILGITIGRMVQNFELLPPPGQSKVDTSEKGGQFSLHILNHSIIVMKPRNC
modifications: N-terminal FLAG tag
- Km (n=3, read-out: Km app. (±SD)): 1.1 ± 0.09 µM
- Km (read-out: Km^aPP): 1.1 ± 0.09 µM
- Turnover (min^−1 ± SD), CO difference spectrum: 83 ± 2 min⁻¹
- Turnover (min^−1 ± SD), Midwestern blot [1]: 380 ± 7 min⁻¹
- turnover rate, calculated using immunological quantification [1]: 380±7 min^1
- Turnover (min^−1 ± SD), Midwestern blot (P450 concentration from Midwestern blot, listed as FLAG-C4H): 380 ± 7 min⁻¹
- turnover rate, calculated using P450 concentrations from CO difference spectroscopy (listed as FLAG-C4H): 83±2.0 min^1 and 83±2 min^1
